Test results: patent US20190185531A1

Key:
Assay in all cases: competition fluorescence anisotropy against fluoresceinated Bim BH3
[1] = target: Bcl-2 (c-myc-tagged) (human) (UniProt P10415)
[2] = target: T1, Bcl-w (c-myc-tagged) (human) (UniProt Q92843)
T1 sequence (looked up): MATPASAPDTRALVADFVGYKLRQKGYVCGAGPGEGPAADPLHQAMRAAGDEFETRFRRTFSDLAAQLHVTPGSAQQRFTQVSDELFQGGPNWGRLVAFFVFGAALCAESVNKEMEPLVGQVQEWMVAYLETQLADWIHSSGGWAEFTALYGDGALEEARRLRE

[3] = target: Bcl-xL (c-myc-tagged) (human) (UniProt Q07817)
Chain of Bcl-xL (c-myc-tagged) (human) (Q07817 1-209): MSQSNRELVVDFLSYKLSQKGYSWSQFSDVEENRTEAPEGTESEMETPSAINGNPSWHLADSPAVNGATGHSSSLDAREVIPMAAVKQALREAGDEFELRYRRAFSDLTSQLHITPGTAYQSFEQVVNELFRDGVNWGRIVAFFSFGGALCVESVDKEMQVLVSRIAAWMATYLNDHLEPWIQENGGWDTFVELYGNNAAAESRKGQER

[4] = target: human Mcl-1 (c-myc-tagged) (human) (UniProt Q07820)
Chain of human Mcl-1 (c-myc-tagged) (human) (Q07820 172-327 limits assumed): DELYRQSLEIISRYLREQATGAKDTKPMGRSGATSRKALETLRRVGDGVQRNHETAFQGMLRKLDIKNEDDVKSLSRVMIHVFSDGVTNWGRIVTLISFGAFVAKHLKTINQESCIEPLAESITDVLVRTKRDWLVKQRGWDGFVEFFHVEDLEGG

Measured: fold specificity for Bfl-1 relative to this protein

Chain of Bcl-2 (c-myc-tagged) (human) (P10415 1-217 limits assumed): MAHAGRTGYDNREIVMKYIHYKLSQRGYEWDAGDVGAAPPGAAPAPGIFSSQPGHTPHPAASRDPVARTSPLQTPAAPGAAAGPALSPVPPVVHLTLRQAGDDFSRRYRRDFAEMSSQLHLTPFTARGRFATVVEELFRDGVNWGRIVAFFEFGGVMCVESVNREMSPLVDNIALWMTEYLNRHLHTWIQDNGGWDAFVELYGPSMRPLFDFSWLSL

B1: FS1 (peptide)
peptide: Ac-QWVREIAAGLRLAADNVNAQLER-NH2
> 150 fold: [1] | [2] | [3] | [4]
